# Tests used:
# Experiment in all cases: cell-based or functional assay
# [1] = target: HIV-1 Env of isolate CMU02 (pseudovirus) (HIV-1)
# [2] = target: aMLV envelope (negative control pseudovirus) (aMLV)
# [3] = target: HIV-1 Env of isolate 94 KE 105 (pseudovirus) (HIV-1)
# [4] = target: HIV-1 Env of isolate 92UG001 (HIV-1)
# [5] = target: HIV-1 Env of isolate MGRM-C-004 (HIV-1)
# [6] = target: HIV-1 Env of pseudovirus isolate MGRM-C-008 (clade C) (HIV-1)
# [7] = target: HIV-1 Env of isolate MGRM-AG-006 (subtype AG) (HIV-1)
# [8] = target: HIV-1 Env of isolate MGRM-D-028 (HIV-1)
# [9] = target: HIV-1 Env of pseudovirus isolate MGRM-C-022 (clade C) (HIV-1)
# [10] = target: HIV-1 Env of isolate MGRM-AE-006 (subtype AE) (HIV-1)
# [11] = target: HIV-1 JR-CSF Env T413A (HIV-1 (isolate JR-CSF)) (UniProt P20871)
# [12] = target: HIV-1 Env of isolate MGRM-D-022 (pseudovirus) (HIV-1)
# [13] = target: HIV-1 Env of isolate MGRM-AG-012 (subtype AG) (HIV-1)
# [14] = target: HIV-1 Env of pseudovirus isolate MGRM-C-028 (clade C) (HIV-1)
# [15] = target: HIV-1 Env of isolate MGRM-AE-007 (subtype AE) (HIV-1)
# [16] = target: HIV-1 CMU02 Env (HIV-1)
# [17] = target: HIV-1 93IN905 Env (HIV-1)
# [18] = target: HIV-1 92UG024 Env (HIV-1)
# [19] = target: HIV-1 MGRM-A-010 Env (HIV-1)
# [20] = target: HIV-1 Env of pseudovirus MGRM-D-024 (HIV-1)
# [21] = target: HIV-1 envelope glycoprotein (Env) of isolate MG RM-AG-013 (HIV-1)
# [22] = target: HIV-1 Env of pseudovirus MGRM-F1-021 (HIV-1)
# [23] = target: HIV-1 Env of pseudovirus MGRM-D-011 (HIV-1)
# Chain of PGT-144 (4970_K22) (antibody) (VH): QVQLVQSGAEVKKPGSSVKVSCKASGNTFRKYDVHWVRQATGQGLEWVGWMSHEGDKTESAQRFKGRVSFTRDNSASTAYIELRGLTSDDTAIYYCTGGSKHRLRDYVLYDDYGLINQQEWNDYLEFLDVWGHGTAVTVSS
# Chain of PGT-144 (4970_K22) (antibody) (VL): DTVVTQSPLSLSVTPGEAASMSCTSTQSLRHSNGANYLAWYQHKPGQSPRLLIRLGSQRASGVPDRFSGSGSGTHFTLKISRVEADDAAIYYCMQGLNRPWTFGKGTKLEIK
# Chain of 5345_I01 (PGT-137) (antibody) (VH): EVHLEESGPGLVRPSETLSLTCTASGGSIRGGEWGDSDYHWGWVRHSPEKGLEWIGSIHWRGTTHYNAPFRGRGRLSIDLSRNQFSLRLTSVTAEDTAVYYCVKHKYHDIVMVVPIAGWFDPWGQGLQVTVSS
# Chain of 5345_I01 (PGT-137) (antibody) (VL): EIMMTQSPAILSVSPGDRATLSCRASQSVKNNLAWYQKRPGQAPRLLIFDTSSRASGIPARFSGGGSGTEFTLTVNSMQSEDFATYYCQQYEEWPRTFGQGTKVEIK
# Chain of 4993_K13 (PGT-141) (antibody) (VH): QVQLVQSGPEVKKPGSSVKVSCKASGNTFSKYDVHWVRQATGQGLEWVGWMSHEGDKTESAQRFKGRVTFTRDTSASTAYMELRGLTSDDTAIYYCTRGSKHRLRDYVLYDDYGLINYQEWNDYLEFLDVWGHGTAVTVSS
# Chain of 4993_K13 (PGT-141) (antibody) (VL): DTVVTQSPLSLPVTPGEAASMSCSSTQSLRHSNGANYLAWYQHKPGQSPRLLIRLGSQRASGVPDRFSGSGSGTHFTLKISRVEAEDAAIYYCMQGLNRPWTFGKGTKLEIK
# Chain of PGT-143 (4980_N08) (antibody) (VH): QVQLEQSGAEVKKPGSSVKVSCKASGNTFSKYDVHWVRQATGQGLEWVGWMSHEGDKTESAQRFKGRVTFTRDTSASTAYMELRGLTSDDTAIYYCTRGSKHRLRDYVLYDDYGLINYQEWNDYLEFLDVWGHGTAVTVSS
# Chain of PGT-143 (4980_N08) (antibody) (VL): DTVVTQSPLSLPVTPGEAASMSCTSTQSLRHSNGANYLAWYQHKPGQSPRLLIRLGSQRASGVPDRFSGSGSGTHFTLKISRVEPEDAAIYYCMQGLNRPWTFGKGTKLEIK
# Chain of 4995_P16 (PGT-145) (antibody) (VH): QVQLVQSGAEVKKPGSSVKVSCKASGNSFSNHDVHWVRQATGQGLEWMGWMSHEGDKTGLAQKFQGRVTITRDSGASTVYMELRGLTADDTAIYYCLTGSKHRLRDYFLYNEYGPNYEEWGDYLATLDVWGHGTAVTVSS
# Chain of 4995_P16 (PGT-145) (antibody) (VL): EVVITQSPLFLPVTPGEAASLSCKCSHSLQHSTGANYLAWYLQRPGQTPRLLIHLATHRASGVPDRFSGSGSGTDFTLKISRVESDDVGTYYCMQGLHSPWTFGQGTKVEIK
# Chain of 5329_C19 (PGT-136) (antibody) (VH): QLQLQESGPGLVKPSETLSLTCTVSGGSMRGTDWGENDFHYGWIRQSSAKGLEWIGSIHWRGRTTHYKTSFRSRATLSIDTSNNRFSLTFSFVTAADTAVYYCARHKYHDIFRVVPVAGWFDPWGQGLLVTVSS
# Chain of 5329_C19 (PGT-136) (antibody) (VL): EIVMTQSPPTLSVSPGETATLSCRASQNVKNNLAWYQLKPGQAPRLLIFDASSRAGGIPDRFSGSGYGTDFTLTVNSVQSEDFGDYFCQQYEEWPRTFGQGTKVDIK
# Chain of PGT-142 (4995_E20) (antibody) (VH): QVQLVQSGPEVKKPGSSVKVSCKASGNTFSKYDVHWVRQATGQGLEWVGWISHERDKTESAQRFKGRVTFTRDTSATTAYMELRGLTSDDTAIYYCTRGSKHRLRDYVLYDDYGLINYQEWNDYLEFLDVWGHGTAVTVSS
Substance,"IC50 (µg/mL), single-round pseudovirus neutralization [1] [µg/mL]","IC50 (µg/mL), pseudovirus neutralization [2] [µg/mL]","IC50 (µg/mL), single-round pseudovirus neutralization [3] [µg/mL]","IC50 (µg/mL), pseudovirus neutralization [4] [µg/mL]","IC50 (µg/mL), pseudovirus neutralization [5] [µg/mL]","IC50, pseudovirus neutralization [6] [µg/mL]","IC50, pseudovirus neutralization [7] [µg/mL]","IC50 (µg/mL), pseudovirus neutralization [8] [µg/mL]","IC50, pseudovirus neutralization [9] [µg/mL]","IC50, pseudovirus neutralization [10] [µg/mL]","IC50 (µg/mL), pseudovirus neutralization [12] [µg/mL]","IC50, pseudovirus neutralization [13] [µg/mL]","IC50, pseudovirus neutralization [14] [µg/mL]","IC50, pseudovirus neutralization [15] [µg/mL]","IC50, pseudovirus neutralization [20] [µg/mL]",IC50 [21] [µg/mL],"IC50, pseudovirus neutralization [22] [µg/mL]","IC50, pseudovirus neutralization [23] [µg/mL]",other results
4970_K22 (PGT-144) (antibody),> 50,> 50,0.29,> 50,–,–,–,–,–,–,–,–,–,–,–,–,–,–,–
4980_N08 (PGT-143) (antibody),> 50,> 50,0.368,> 50,–,–,–,–,–,–,–,–,–,–,–,–,–,–,–
4993_K13 (PGT-141) (antibody),> 50,> 50,0.204,> 50,–,–,–,–,–,–,–,–,–,–,–,–,–,–,–
4995_E20 (PGT-142) (antibody),> 50,> 50,0.19,> 50,–,–,–,–,–,–,–,–,–,–,–,–,–,–,–
4995_P16 (PGT-145) (antibody),1.43,> 50,1.32,> 50,–,–,–,–,–,–,–,–,–,–,–,–,–,–,–
5114_A19 (PGT-128) (antibody),–,–,–,–,0.025,0.373,0.009,> 50,0.042,0.044,> 50,> 50,14.4,> 50,–,–,–,–,Fold IC50 increase relative to wild-type (pseudovirus neutralization) [11]: 1 fold
5136_H01 (PGT-131) (antibody),–,–,–,–,3.71,> 50,0.019,> 50,0.78,0.026,> 50,> 50,> 50,0.026,–,–,–,–,Fold IC50 increase relative to wild-type (pseudovirus neutralization) [11]: 0.6 fold
5147_N06 (PGT-130) (antibody),–,–,–,–,2.76,7.28,0.009,0.825,0.127,0.009,> 50,> 50,> 50,0.083,–,–,–,–,"Fold IC50 increase relative to wild-type (pseudovirus neutralization) [11]: 0.6 fold; IC50, pseudovirus neutralization [16]: > 10 µg/mL; IC50, pseudovirus neutralization [17]: 0.0182 µg/mL; IC50, pseudovirus neutralization [18]: > 10 µg/mL; IC50, pseudovirus neutralization [19]: 0.0054 µg/mL"
5329_C19 (PGT-136) (antibody),–,–,–,–,0.034,> 50,29.1,> 50,> 50,> 50,> 50,> 50,33.7,> 50,–,–,–,–,–
5343_B08 (PGT-135) (antibody),–,–,–,–,0.046,> 50,17.9,> 50,> 50,> 50,> 50,41.9,1.47,> 50,–,–,–,–,Fold IC50 increase relative to wild-type (pseudovirus neutralization) [11]: 0.3 fold
5345_I01 (PGT-137) (antibody),–,–,–,–,0.026,> 50,28.3,> 50,> 50,> 50,> 50,> 50,> 50,> 50,–,–,–,–,–
PGT-141 (4964_G22; 4993_K13) (antibody),–,–,–,–,–,–,–,–,–,–,–,–,–,–,> 50,> 50,> 50,> 50,–
PGT-142 (4995_E20) (antibody),–,–,–,–,–,–,–,–,–,–,–,–,–,–,> 50,21.7,> 50,> 50,–
PGT-143 (4980_N08) (antibody),–,–,–,–,–,–,–,–,–,–,–,–,–,–,> 50,> 50,> 50,> 50,–
PGT-144 (4970_K22) (antibody),–,–,–,–,–,–,–,–,–,–,–,–,–,–,> 50,> 40,> 50,> 50,–
PGT-145 (4995_P16) (antibody),–,–,–,–,–,–,–,–,–,–,–,–,–,–,0.224,14.4,8.04,14.7,–
VRC01 (antibody),0.515,> 50,0.499,1.16,–,–,–,–,–,–,–,–,–,–,0.366,0.197,0.039,0.075,–

# Reference: US20240132578A1
